This is an account of results in the supplement of paper PMC10126150.

± gives the standard deviation of the averaged measurements.

In the data set the test system is ATP. In words: switch fluorescence ratio, 500 uM ATP over buffer (Cy3 cluster intensity, sum of 5 cycles each) (fold (ratio)); higher = stronger signal-on switching upon ATP binding; sequences stand for … in TCGTCGGCAGCGTCAGATGTGTATAAGAGACAGTTTTTTTTTTTTTTTTTTTTTTTTT…TC. Particulars: aptamer strand: ATP DNA aptamer (quencher-CACCTGGGGGAGTATTGCGGAGGAAGG + anchor), 100 nM annealed; ATP concentration: 500 uM. A digest of the protocol:
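Five buffer/ATP imaging cycles were run on Cy3-labelled switching-strand clusters on a modified Illumina MiSeq flow-cell, with NaOH stripping and re-annealing between cycles. In each cycle, clusters annealed to 100 nM quencher-labelled ATP aptamer were imaged in selection buffer, then after 15 min with 500 uM ATP at 22 °C. Per cluster, the fluorescence ratio is summed target-cycle over summed buffer-cycle Cy3 intensity, averaged per switch-domain sequence. Only clusters within 100-1000 RFU were kept.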
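Also: ATP exposure 15 min at 22 °C before imaging.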

Take TGGGGTAGGG: the switch fluorescence ratio was 0.998 ± 0.026. With AGTATCTTAC the figure was 1.03 ± 0.025; with TGACGGTTTA, 1.023 ± 0.0016; with CTCGATAGGA, 1.02 ± 0.0083. With GGGTTTGCGA, the switch fluorescence ratio turned out to be 1.02 ± 0.048. On to GTTAAAAATG, for which the switch fluorescence ratio turned out to be 1.04 ± 0.051.

With CGCTTTGATA, the switch fluorescence ratio worked out at 0.991 ± 0.03.

As to GTTTTTTTAG, the switch fluorescence ratio is 1 ± 0.033. To GCTGGACGTG belongs 0.9912 ± 0.0055; to TCGAGGGGAC, 1.67 ± 1.4; to AGCTGGGATT, 0.989 ± 0.054.

Turning to AGGCCTTTTC, the switch fluorescence ratio came out at 1.008 ± 0.0026. To GGGGTAAGGC belongs 0.979 ± 0.019; to TTTGGATGGA, 1.02 ± 0.023; to CTTAGTTAGC, 1.02 ± 0.013. With ACCCTGGAAC the figure was 1.045 ± 0.0039; with TTCGAATGTG, 1.01 ± 0.028; with TGTGTGTTAG, 0.985 ± 0.016.

On to TTGGGCTAAT, for which the switch fluorescence ratio was 0.994 ± 0.029. With AGTGGATGGG the figure was 0.9858 ± 0.0031; with ACATCTCGAT, 0.996 ± 0.015; with TTGGGTAGAA, 0.986 ± 0.045. On to TCAGCGTACG, for which the switch fluorescence ratio was 1.01 ± 0.014. Take GCATTGGTAC: the switch fluorescence ratio turned out to be 1.17 ± 0.071. Turning to CGTCTAAGCG, the switch fluorescence ratio is 1 ± 0.086.

Turning to TTTTGTATCG, the switch fluorescence ratio was determined as 0.948 ± 0.052. Take TGATGCATGG: the switch fluorescence ratio was 1.05 ± 0.048.

Take GGGTACAGGT: the switch fluorescence ratio is 1.18 ± 0.2. As for CCACTAATGG, the switch fluorescence ratio turned out to be 1.03 ± 0.013. To TTATTTATTA belongs 1.0338 ± 0.00047; to GCGTGGGGGT, 1.01 ± 0.012.

In the case of TTTATGGTGT, the switch fluorescence ratio worked out at 1.17 ± 0.21. With GGTTCAGCGT the figure was 0.984 ± 0.015. In the case of TGAGTATTAG, the switch fluorescence ratio amounted to 0.999 ± 0.033. In the case of TGGGCTCCTT, the switch fluorescence ratio is 1 ± 0.043. On to GAGGGTAGTT, for which the switch fluorescence ratio was 1.031 ± 0.0055.

Take CGAATGTTCG: the switch fluorescence ratio came out at 0.998 ± 0.035. With GACACGAGGT the figure was 1.013 ± 0.0084; with GATGCGGTG, 1 ± 0.012; with TGTGTGGGTA, 0.95768 ± 0.00058. With GGGAGGTTCT the figure was 0.974 ± 0.033; with GTGATGTTGG, 1.02 ± 0.029; with CCAGCATGGG, 1.02 ± 0.015. To GGGGGTGTCG belongs 0.994 ± 0.035. For the sequence TTAATAGTCA, the switch fluorescence ratio came to 1 ± 0.014. To CGCGTTGTTG belongs 1.03 ± 0.012; to GGGGGGAATA, 1 ± 0.047. To CGTCAAAAAC belongs 1.38 ± 0.2. To ATTAGATTTT belongs 1.02 ± 0.12. GGGGGTCCCG: the switch fluorescence ratio was determined as 1 ± 0.012. With GATTGCAGCG the figure was 1.002 ± 0.0016; with TTTTTTGGGT, 0.994 ± 0.024. Turning to AAGACCGGGG, the switch fluorescence ratio was 1.0215 ± 0.00047. For GCAGGGACCC, the switch fluorescence ratio turned out to be 1.12 ± 0.12. For the sequence AGAGGTAGTA, the switch fluorescence ratio came out at 1.017 ± 0.0066. As to GCATGATGGA, the switch fluorescence ratio stood at 0.975 ± 0.022. With CGATTATGTA, the switch fluorescence ratio stood at 0.9667 ± 0.0078. CTCGAGAGCT: the switch fluorescence ratio stood at 0.973 ± 0.018. For CTGTGACCGT, the switch fluorescence ratio was 1.02 ± 0.025. For TGTGAATTCT, the switch fluorescence ratio came out at 0.993 ± 0.023. With ACGGTTCCAT the figure was 0.97 ± 0.057; with TGGGGAGAAC, 1.055 ± 0.0077; with TTCATTTTTT, 1.02 ± 0.041.

As to TGAAGCTGCC, the switch fluorescence ratio stood at 1.28 ± 0.042. Regarding TCAGATTGCA, the switch fluorescence ratio was determined as 1.007 ± 0.0025. As to TGGGATACGG, the switch fluorescence ratio stood at 1.61 ± 1. With TGGTATTGCT, the switch fluorescence ratio was 0.9955 ± 0.0098. With CGTTTAATCA, the switch fluorescence ratio was determined as 0.982 ± 0.018. With GGAATACTAG the figure was 1.14 ± 0.053.

On to AGGGTGGCGT, for which the switch fluorescence ratio is 0.9459 ± 0.0075. As to TATATTTTTT, the switch fluorescence ratio came out at 1.02 ± 0.068. To ATAGCTTGAG belongs 1.01 ± 0.04; to TTATTTTCAC, 1.04 ± 0.036. ATTATTGGGG: the switch fluorescence ratio was found to be 0.9642 ± 0.0086. ACAGAGGCAC: the switch fluorescence ratio was 1.02 ± 0.062.

Take CGTATGGCCT: the switch fluorescence ratio turned out to be 0.958 ± 0.01. In the case of ATGGGCTCAG, the switch fluorescence ratio came to 1.005 ± 0.0033. With ATTAGAAGGG the figure was 0.985 ± 0.061. To AAAATTTTTA belongs 1 ± 0.021; to TATGTGGGCT, 0.987 ± 0.021. CAGAGATCAT: the switch fluorescence ratio was 0.993 ± 0.019. For TGATTCCTGC, the switch fluorescence ratio stood at 1.02 ± 0.039. Turning to AGCTGACTAT, the switch fluorescence ratio came out at 1.06 ± 0.11. Consider AGGTTTGTTT, for which the switch fluorescence ratio is 0.976 ± 0.0092. To AGGGCTAGTA belongs 1 ± 0.034. With CCAGTTGGCA the figure was 1 ± 0.031; with TGATTTTGCC, 1.01 ± 0.018; with AGTGTTAGAC, 1.012 ± 0.0048. On to TCTTTGTCGG, for which the switch fluorescence ratio was 0.977 ± 0.029.

With GCGGGGGTTT, the switch fluorescence ratio is 1.15 ± 0.28. Regarding AGCTTCGGTC, the switch fluorescence ratio stood at 0.953 ± 0.0098. In the case of TTTTGGCCAT, the switch fluorescence ratio was found to be 0.995 ± 0.082.

Regarding GCCTTGATGG, the switch fluorescence ratio was determined as 1.01 ± 0.021. Regarding CTGGAATGGG, the switch fluorescence ratio was found to be 1.02 ± 0.056.

With TGGGAAAGGC, the switch fluorescence ratio was found to be 1.07 ± 0.061.

In the case of TCTGGGGGAA, the switch fluorescence ratio was 1.06 ± 0.15. Consider TTTTCGAGGT, for which the switch fluorescence ratio stood at 1.17 ± 0.24.

Regarding GGTTCGGGTG, the switch fluorescence ratio was 1.075 ± 0.0041. To TTGTGGCCGG belongs 0.978 ± 0.045; to TTGTTTACCC, 0.9713 ± 0.0036; to CGTTCAGTGG, 1.031 ± 0.0083.

Turning to AAAAAAAGGG, the switch fluorescence ratio came out at 1.01 ± 0.047.

Take ATTACGGAGA: the switch fluorescence ratio is 1.05 ± 0.069. With AATCGGTCTG the figure was 1.03 ± 0.02.

For AGAGCAATTG, the switch fluorescence ratio was determined as 1.19 ± 0.014. As to TTAAAATATT, the switch fluorescence ratio worked out at 0.993 ± 0.023. To ATTGAGGGTC belongs 0.986 ± 0.018; to CTAAGGGATT, 1.01 ± 0.058. With GGTTTACCGG the figure was 0.987 ± 0.039; with CGTCTTGGTG, 0.999 ± 0.03; with TTTAGCAGAG, 1.16 ± 0.28. Turning to TACAGTCAAC, the switch fluorescence ratio worked out at 1.06 ± 0.041.

As to ACAAGGAGGT, the switch fluorescence ratio was found to be 0.983 ± 0.005.

For GGATTTGGCG, the switch fluorescence ratio stood at 0.985 ± 0.029. Turning to GATTCAGGTA, the switch fluorescence ratio came to 1.01 ± 0.026.

As for GTGTGTTGAT, the switch fluorescence ratio came out at 0.989 ± 0.029. With ACGTGGTTAG the figure was 1 ± 0.029. With CCTTTTATTC the figure was 1.01 ± 0.03. With AAAGGAGTTT the figure was 1.01 ± 0.072; with GCACTTGGGG, 0.998 ± 0.057.
